Measured values as given in article PMC5839991 (Nature structural & molecular biology, 2018).

How the values were obtained:
[1] = molecular target: mouse serum albumin, biotin labeled (Mus musculus, UniProt P07724, biotin (EZ-Link NHS-PEG4-Biotin)); test: SPR
[2] = molecular target: recombinant human serum albumin from S. cerevisiae, biotin labeled (Homo sapiens, UniProt P02768, biotin (EZ-Link NHS-PEG4-Biotin)); test: SPR

Sequence of mouse serum albumin, biotin labeled (P07724 25-608): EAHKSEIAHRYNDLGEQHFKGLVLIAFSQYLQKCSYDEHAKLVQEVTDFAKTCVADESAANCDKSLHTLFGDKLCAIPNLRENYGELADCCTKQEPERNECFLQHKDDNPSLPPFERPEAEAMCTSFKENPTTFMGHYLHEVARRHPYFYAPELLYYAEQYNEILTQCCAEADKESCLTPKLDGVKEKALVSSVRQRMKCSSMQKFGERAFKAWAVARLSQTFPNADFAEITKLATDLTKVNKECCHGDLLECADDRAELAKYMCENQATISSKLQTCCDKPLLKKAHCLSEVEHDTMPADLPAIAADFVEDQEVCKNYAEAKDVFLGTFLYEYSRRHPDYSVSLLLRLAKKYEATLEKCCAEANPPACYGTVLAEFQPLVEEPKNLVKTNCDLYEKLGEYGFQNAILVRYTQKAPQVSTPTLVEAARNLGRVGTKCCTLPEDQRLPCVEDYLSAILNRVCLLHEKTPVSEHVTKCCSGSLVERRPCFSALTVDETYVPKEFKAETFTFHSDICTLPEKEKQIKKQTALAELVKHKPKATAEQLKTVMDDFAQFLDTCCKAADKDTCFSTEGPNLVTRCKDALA

B1: Nb.b201 (VHH)
VHH: QVQLQESGGGLVQAGGSLRLSCAASGYISDAYYMGWYRQAPGKEREFVATITHGTNTYYADSVKGRFTISRDNAKNTVYLQMNSLKPEDTAVYYCAVLETRSYSFRYWGQGTQVTVSS
**Q.** Does B1 bind [1]?
**A.** no binding

**Q.** And the Kd [2]?
**A.** 430 nM
